What was measured:
[1] = target: FimA domain of the self-complemented construct FimA-DS_(FimA), oxidized (FimAS-S), in the polyprotein (I91)2-FimA-(I91)2 (E. coli) (UniProt P04128); assay: single-molecule force spectroscopy (AFM, force-extension)
[2] = target: FimF domain of the self-complemented construct FimF-DS_(FimA), oxidized (FimFS-S), in the polyprotein (I91)2-FimF-(I91)2 (E. coli) (UniProt P08189); assay: as above
[3] = target: FimF domain, β-strand-complemented and oxidized, in the array polyprotein (I91)2-FimF-FimG-FimH-(I91)2 (E. coli) (UniProt P08189); assay: single-molecule force spectroscopy (AFM, force-ramp)
[4] = target: FimH (lectin subdomain FimHL and pilin subdomain FimHP) of the self-complemented construct FimH-DS_( (E. coli) (UniProt P08191)); assay: single-molecule force spectroscopy (AFM, force-extension)
[5] = target: FimH (lectin and pilin subdomains), β-strand-complemented and oxidized, in the array polyprotein (I9 (E. coli) (UniProt P08191)); assay: single-molecule force spectroscopy (AFM, force-ramp)
[6] = target: FimG domain of the self-complemented construct FimG-DS_(FimF), reduced (FimG_(SH-SH)), in the polyprotein (I91)2-FimG-(I91)2 (E. coli)
[7] = target: FimG domain of the self-complemented construct FimG-DS_(FimF), oxidized (FimGS-S), in the polyprotein (I91)2-FimG-(I91)2 (E. coli); assay: single-molecule force spectroscopy (AFM, force-extension)
FimG domain of the self-complemented construct FimG-DS_(FimF), oxidized (FimGS-S), in the polyprotein (I91)2-FimG-(I91)2 (E. coli), sequence (P08190 24-167): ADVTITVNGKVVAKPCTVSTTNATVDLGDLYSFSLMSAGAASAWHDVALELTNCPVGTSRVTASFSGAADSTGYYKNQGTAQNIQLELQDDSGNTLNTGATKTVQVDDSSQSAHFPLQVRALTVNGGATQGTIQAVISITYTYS

[8] = target: FimG domain, β-strand-complemented and oxidized, in the array polyprotein (I91)2-FimF-FimG-FimH-(I91)2 (E. coli); assay: single-molecule force spectroscopy (AFM, force-ramp)
FimG domain, β-strand-complemented and oxidized, in the array polyprotein (I91)2-FimF-FimG-FimH-(I91)2 (E. coli), sequence (P08190 24-167): as above

UniProt P04128, sequence (P04128 24-182): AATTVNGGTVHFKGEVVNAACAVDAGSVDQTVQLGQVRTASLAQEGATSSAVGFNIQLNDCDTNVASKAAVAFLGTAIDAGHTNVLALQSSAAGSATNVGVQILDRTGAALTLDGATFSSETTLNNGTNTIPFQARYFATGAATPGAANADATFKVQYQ

## donor β-strand of FimA (DS_(FimA)) linked by DNKQ to the C-terminus of FimA in (I91)2-FimA-(I91)2 (from UniProt P04128) (peptide)
[1]
  unfolding force (rupture of the β-strand interaction): 527 pN

## donor β-strand of FimA (DS_(FimA)) linked by DNKQ to the C-terminus of FimF in (I91)2-FimF-(I91)2 (peptide)
[2]
  unfolding force (rupture of the β-strand interaction): 418 pN

## donor β-strand of FimA complementing FimF in the array polyprotein (I91)2-FimF-FimG-FimH-(I91)2 (peptide)
[3]
  unfolding force in force-ramp (rupture of the β-strand interaction): 281 pN

## donor β-strand of FimG (DS_(FimG)) linked by DNKQ to the C-terminus of FimH in (I91)2-FimH-(I91)2 (from UniProt P08190) (peptide)
[4]
  rupture force of FimHP (rupture of the β-strand interaction): 362 pN

## donor β-strand of FimG complementing FimH in the array polyprotein (I91)2-FimF-FimG-FimH-(I91)2 (from UniProt P08190) (peptide)
[5]
  unfolding force of FimHP in force-ramp (rupture of the β-strand interaction): 238 pN

B1: DsbA oxidoreductase (enzyme)
chain: AQYEDGKQYTTLEKPVAGAPQVLEFFSFFCPHCYQFEEVLHISDNVKKKLPEGVKMTKYHVNFMGGDLGKDLTQAWAVAMALGVEDKVTVPLFEGVQKTQTIRSASDIRDVFINAGIKGEEYDAAWNSFVVKSLVAQQEKAAADVQLRGVPAMFVNGKYQLNPQGMDTSNMDVFVQQYADTVKYLSEKK
[6]
  refolding probability of FimG in force-clamp AFM after 45 s at 0 pN, with DsbA (100 μM) against reduced FimG alone (around 20%): 70%

B2: donor β-strand of FimF (DS_(FimF)) linked by DNKQ to the C-terminus of FimG in (I91)2-FimG-(I91)2 (peptide)
chain: DNKQADSTITIRGYVRDNGCSVAAESTNFTVDLMENAAKQFNNIGATTPVVPFRILLSPCGNAVSAVKVGFTGVADSHNANLLALENTVSAASGLGIQLLNEQQNQIPLNAPSSALSWTTLTPGKPNTLNFYARLMATQVPVTAGHINATATFTLEYQ
[7]
  unfolding force (rupture of the β-strand interaction): 431 pN

B3: donor β-strand of FimF complementing FimG in the array polyprotein (I91)2-FimF-FimG-FimH-(I91)2 (peptide)
chain: B2 chain
[8]
  unfolding force in force-ramp (rupture of the β-strand interaction): 261 pN
